± gives the standard error. For some assays here: Fewer inactive variants are shown than the library holds.
B1: glmS ribozyme (parent)
chain: AUAAAAGCGCCAGAACUACAGAAAUGUAGUUGACGAGGAGGAGGUUUAUCGAAUUUUCGGCGGAUGCCUCCAAA

What was measured:
Conditions in all cases: with glucosamine-6-phosphate
glucosamine-6-phosphate [1] = variants of: B1; experiment: kcat; higher = faster cleavage; RNA array
How it was run: (§1)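 kcat and KM were obtained from weighted Michaelis–Menten fits across concentrations of kobs values. Those came from one- or two-exponential decay fits to per-tile medians normalised to baseline and to non-cleaving reference variants. The variants were barcoded ribozymes transcribed in situ by E. coli RNA polymerase on sequenced MiSeq chips and tracked through a hybridised Cy3 probe at 37 °C, with 40 μM to 10 mM glucosamine-6-phosphate in HEPES/KCl/Mg(OAc)2 buffer flowed in.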

glucosamine-6-phosphate [2] = variants of: B1; experiment: KM; higher = weaker cofactor use; RNA array
How it was run: as §1

glucosamine-6-phosphate [3] = variants of: B1; experiment: self-cleavage kobs at 40 uM GlcN6P; higher = faster cleavage; RNA array
How it was run: as §1

glucosamine-6-phosphate [4] = variants of: B1; experiment: self-cleavage kobs at 160 uM GlcN6P; higher = faster cleavage; RNA array
How it was run: as §1

glucosamine-6-phosphate [5] = variants of: B1; experiment: self-cleavage kobs at 640 uM GlcN6P; higher = faster cleavage; RNA array
How it was run: as §1

glucosamine-6-phosphate [6] = variants of: B1; experiment: self-cleavage kobs at 2500 uM GlcN6P; higher = faster cleavage; RNA array
How it was run: as §1

glucosamine-6-phosphate [7] = variants of: B1; experiment: self-cleavage kobs at 10000 uM GlcN6P; higher = faster cleavage; RNA array
How it was run: as §1

Row | Variant | kcat (glucosamine-6-phosphate [1]) [s⁻¹] | KM (glucosamine-6-phosphate [2]) [µM] | self-cleavage kobs at 40 uM GlcN6P (glucosamine-6-phosphate [3]) [s⁻¹] | self-cleavage kobs at 160 uM GlcN6P (glucosamine-6-phosphate [4]) [s⁻¹] | self-cleavage kobs at 640 uM GlcN6P (glucosamine-6-phosphate [5]) [s⁻¹] | self-cleavage kobs at 2500 uM GlcN6P (glucosamine-6-phosphate [6]) [s⁻¹] | self-cleavage kobs at 10000 uM GlcN6P (glucosamine-6-phosphate [7]) [s⁻¹]
1 | A53U U54A | 0.0314 ± 0.0026 | 1760 ± 180 | 0.000727 ± 0.00011 | 0.00236 ± 0.00084 | 0.00817 ± 0.0019 | 0.0161 ± 0.0071 | 0.0279 ± 0.0062
2 | C50U A53C | 1.18e-05 ± 1.3e-06 |  |  |  |  |  | 
3 | C50U A53G | 6.82e-05 ± 1.3e-06 | 642 ± 54 |  |  | 3.45e-05 ± 1.6e-05 | 5.41e-05 ± 1.5e-05 | 6.42e-05 ± 1.5e-05
4 | U49A G66C | < 1e-05 |  |  |  | < 1e-05 |  | 
5 | A52C G66C | 1.28e-05 ± 2.9e-06 |  | < 1e-05 |  | < 1e-05 |  | 
6 | A53G C71A | 0.00448 ± 0.002 |  | 0.000374 ± 4.3e-05 | 0.00085 ± 0.00013 | 0.00169 ± 0.00037 | 0.00297 ± 0.0007 | 0.00857 ± 0.0012
7 | C50G U69C | 0.000107 ± 2.1e-05 |  | 0.000118 ± 3.6e-05 | 9.81e-05 ± 2.6e-05 | 9.95e-05 ± 1.7e-05 | 0.000193 ± 3.4e-05 | 9.16e-05 ± 1.9e-05
8 | A53C C67G | 3.47e-05 ± 4.1e-06 |  | < 1e-05 |  |  | 3.42e-05 ± 9e-06 | 3.14e-05 ± 6.5e-06
9 | A53C C67A | 0.000935 ± 0.0003 | 1500 ± 750 |  | 7.58e-05 ± 1.6e-05 | 0.000414 ± 6.3e-05 | 0.000435 ± 0.00011 | 0.000889 ± 0.00017
10 | A53C C67U | 0.00119 ± 0.00012 | 1500 ± 230 | 4e-05 ± 6.8e-06 | 0.000109 ± 1e-05 | 0.000355 ± 3.8e-05 | 0.000692 ± 8.1e-05 | 0.00108 ± 0.00011
11 | A53G U56C | 0.00882 ± 0.0023 | 2730 ± 950 | 0.000169 ± 2.5e-05 | 0.000447 ± 0.00011 | 0.00135 ± 0.00025 | 0.00428 ± 0.001 | 0.0073 ± 0.0011
12 | A53G U56G | 0.0121 ± 0.004 | 1150 ± 530 | 0.000497 ± 5.8e-05 | 0.00116 ± 0.00024 | 0.00411 ± 0.00066 | 0.00635 ± 0.0012 | 0.0161 ± 0.0025
13 | A52G C68A C70U | 1.69e-05 ± 3.4e-06 |  |  |  |  |  | 
14 | A48G A53U | 6.17e-05 ± 9.3e-06 |  |  |  |  | 4.65e-05 ± 1.4e-05 | 5.16e-05 ± 7.9e-06
15 | C50U C70A | 2.87e-05 ± 6.9e-06 |  |  |  | 3.61e-05 ± 1.4e-05 | 3.43e-05 ± 1.5e-05 | 
16 | A53C U69A | 0.000135 ± 1.3e-05 | 683 ± 200 |  |  | 6.52e-05 ± 1.2e-05 | 0.000124 ± 2.1e-05 | 0.000118 ± 1.8e-05
17 | A48U C67A | 0.000213 ± 8.2e-05 |  |  |  | 0.00012 ± 1.5e-05 | 0.000105 ± 2.4e-05 | 0.000298 ± 4.3e-05
18 | A52U C67G C70G | 2.5e-05 ± 7.5e-06 |  |  |  |  |  | 

Row | Variant | kcat (glucosamine-6-phosphate [1]) [s⁻¹] | KM (glucosamine-6-phosphate [2]) [µM] | self-cleavage kobs at 40 uM GlcN6P (glucosamine-6-phosphate [3]) [s⁻¹] | self-cleavage kobs at 160 uM GlcN6P (glucosamine-6-phosphate [4]) [s⁻¹] | self-cleavage kobs at 640 uM GlcN6P (glucosamine-6-phosphate [5]) [s⁻¹] | self-cleavage kobs at 2500 uM GlcN6P (glucosamine-6-phosphate [6]) [s⁻¹] | self-cleavage kobs at 10000 uM GlcN6P (glucosamine-6-phosphate [7]) [s⁻¹]
19 | A52U U65C | < 1e-05 |  | < 1e-05 |  |  |  | 
20 | A52U U69G | 2.57e-05 ± 7.6e-06 |  |  | 4.23e-05 ± 1.1e-05 | 3.97e-05 ± 1e-05 | 2.11e-05 ± 7.8e-06 | 
21 | G51A C70A | 2.99e-05 ± 7.1e-06 |  |  |  |  | 3.24e-05 ± 1.5e-05 | 
22 | G51A C70G | 3.48e-05 ± 7.3e-06 |  |  |  |  |  | 
23 | A53C A64C | 8.21e-05 ± 2.3e-05 |  |  |  |  |  | 6.96e-05 ± 1.6e-05
24 | A48U U57C U69G C70U | < 1e-05 |  |  |  |  |  | 
25 | A52G U65G | 0.000271 ± 0.00011 |  |  |  | 5.52e-05 ± 9.3e-06 | 8.89e-05 ± 9.9e-06 | 0.00022 ± 3e-05
26 | A52G U65C | 3.32e-05 ± 1.6e-06 | 248 ± 83 |  |  |  |  | 
27 | U49G U54A | 0.00122 ± 0.00034 | 3170 ± 1400 |  | 9.47e-05 ± 2.3e-05 | 0.000176 ± 3.6e-05 |  | 0.000941 ± 0.00014
28 | C50G C61G | 0.000119 ± 1.7e-05 |  | 8.54e-05 ± 1.1e-05 | 0.000156 ± 1.9e-05 | 0.000115 ± 1.6e-05 | 0.000161 ± 2e-05 | 9.9e-05 ± 1e-05
29 | C50G C61A | 0.000122 ± 1.7e-05 |  | 9.57e-05 ± 9.4e-06 | 0.00018 ± 2.4e-05 | 0.000166 ± 1.7e-05 | 9.96e-05 ± 1.4e-05 | 0.000113 ± 9e-06
30 | A53U A64U | 6.7e-05 ± 2e-06 | 1330 ± 190 | < 1e-05 |  |  | 4.18e-05 ± 1.2e-05 | 5.95e-05 ± 7.3e-06
31 | U49A U69G | 5.15e-05 ± 2.2e-05 |  |  |  | 4.76e-05 ± 1.8e-05 | 8.54e-05 ± 1.8e-05 | 
32 | A48U C68U | 7.9e-05 ± 4.9e-06 | 435 ± 140 |  |  | 4.57e-05 ± 6.9e-06 | 7.48e-05 ± 7.7e-06 | 7.25e-05 ± 6.1e-06
33 | C50U C68G | 4.93e-05 ± 1.9e-05 |  |  | 3.88e-05 ± 1.6e-05 | 6.55e-05 ± 1.1e-05 | 7.89e-05 ± 1.4e-05 | 
34 | A53G C67U | 0.0134 ± 0.0047 | 1400 ± 680 | 0.000512 ± 6.3e-05 | 0.000969 ± 0.00016 | 0.00617 ± 0.0011 | 0.0175 ± 0.0045 | 0.0111 ± 0.0015
35 | C50G G62U U69G | 8.66e-05 ± 2.1e-05 |  | 3.4e-05 ± 1.2e-05 | 0.000155 ± 4.5e-05 | 7.83e-05 ± 2.3e-05 | 0.000155 ± 4.7e-05 | 7.41e-05 ± 1.6e-05

From the supplement of paper PMC7125110
